T1: FcγRIIa R (human FcγRIIa, allotype R, Arg at position 131), extracellular domain with C-terminal His tag (human, UniProt P12318 34-217)
T1 construct: extracellular domain; expressed in FreeStyle293 cells; analyte in Biacore; also called 2aR; FcgRIIa R
T1 sequence (looked up): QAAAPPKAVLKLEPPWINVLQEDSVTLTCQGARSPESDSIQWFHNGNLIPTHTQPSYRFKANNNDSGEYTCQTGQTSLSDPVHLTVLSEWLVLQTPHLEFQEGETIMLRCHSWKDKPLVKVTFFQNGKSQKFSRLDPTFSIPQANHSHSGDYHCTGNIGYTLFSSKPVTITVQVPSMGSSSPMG

T2: FcγRIIb (human, UniProt P31994 43-217)
T2 construct: extracellular domain; also called FcgRIIb; 2b
T2 sequence (looked up): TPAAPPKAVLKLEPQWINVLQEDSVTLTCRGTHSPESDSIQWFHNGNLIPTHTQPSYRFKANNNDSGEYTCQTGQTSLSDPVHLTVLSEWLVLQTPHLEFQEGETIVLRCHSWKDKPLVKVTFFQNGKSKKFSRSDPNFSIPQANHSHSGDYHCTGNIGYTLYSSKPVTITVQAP

B1: GpH7-A5/GpH7-B3 variant Y300_01G/GpL16-k0 (antibody, human IgG1, kappa)
heavy 1: not shown
heavy 2: not shown
light: DIVMTQSPLSLPVTPGEPASISCQASESLVHSNRNTYLHWYLQKPGQSPQLLIYKVSNRFSGVPDRFSGSGSGTDFTLKISRVEAEDVGVYYCSQNTHVPPTFGQGTKVEIERTVAAPSVFIFPPSDEQLKSGTASVVCLLNNFYPREAKVQWKVDNALQSGNSQESVTEQDSKDSTYSLSSTLTLSKADYEKHKVYACEVTHQGLSSPVTKSFNRGEC
notes: heterodimerized IgG1, one H chain mutated; also called He Ab
B2: GpH7-A5/GpH7-B3 variant S298_09D/GpL16-k0 (antibody, human IgG1, kappa)
heavy 1: not shown
heavy 2: not shown
light: B1 light
notes: as for B1
B3: GpH7-A5/GpH7-B3 variant N325_11K/GpL16-k0 (antibody, human IgG1, kappa)
heavy 1: not shown
heavy 2: not shown
light: B1 light
notes: as for B1
B4: GpH7-A5/GpH7-B3 variant A327_15Y/GpL16-k0 (antibody, human IgG1, kappa)
heavy 1: not shown
heavy 2: not shown
light: B1 light
notes: as for B1
B5: GpH7-A5/GpH7-B3 variant A327_12R/GpL16-k0 (antibody, human IgG1, kappa)
heavy 1: not shown
heavy 2: not shown
light: B1 light
notes: as for B1
B6: GpH7-A5/GpH7-B3 variant S298_10E/GpL16-k0 (antibody, human IgG1, kappa)
heavy 1: not shown
heavy 2: not shown
light: B1 light
notes: as for B1
B7: GpH7-A5/GpH7-B3 variant A327_05P/GpL16-k0 (antibody, human IgG1, kappa)
heavy 1: not shown
heavy 2: not shown
light: B1 light
notes: as for B1
B8: GpH7-A5/GpH7-B3 variant N325_19Q/GpL16-k0 (antibody, human IgG1, kappa)
heavy 1: not shown
heavy 2: not shown
light: B1 light
notes: as for B1
B9: GpH7-A5/GpH7-B3 variant A327_04F/GpL16-k0 (antibody, human IgG1, kappa)
heavy 1: not shown
heavy 2: not shown
light: B1 light
notes: as for B1
B10: GpH7-A5/GpH7-B3 variant A327_13S/GpL16-k0 (antibody, human IgG1, kappa)
heavy 1: not shown
heavy 2: not shown
light: B1 light
notes: as for B1
B11: GpH7-A5/GpH7-B3 variant A327_06M/GpL16-k0 (antibody, human IgG1, kappa)
heavy 1: not shown
heavy 2: not shown
light: B1 light
notes: as for B1
B12: GpH7-A5/GpH7-B3 variant A327_16H/GpL16-k0 (antibody, human IgG1, kappa)
heavy 1: not shown
heavy 2: not shown
light: B1 light
notes: as for B1
B13: GpH7-A5/GpH7-B3 variant A327_19Q/GpL16-k0 (antibody, human IgG1, kappa)
heavy 1: not shown
heavy 2: not shown
light: B1 light
notes: as for B1
B14: GpH7-A5/GpH7-B3 variant N325_16H/GpL16-k0 (antibody, human IgG1, kappa)
heavy 1: not shown
heavy 2: not shown
light: B1 light
notes: as for B1
B15: GpH7-A5/GpH7-B3 variant A327_08L/GpL16-k0 (antibody, human IgG1, kappa)
heavy 1: not shown
heavy 2: not shown
light: B1 light
notes: as for B1
B16: GpH7-A5/GpH7-B3 variant N325_05P/GpL16-k0 (antibody, human IgG1, kappa)
heavy 1: not shown
heavy 2: not shown
light: B1 light
notes: as for B1
B17: GpH7-A5/GpH7-B3 variant N325_12R/GpL16-k0 (antibody, human IgG1, kappa)
heavy 1: not shown
heavy 2: not shown
light: B1 light
notes: as for B1
B18: GpH7-A5/GpH7-B3 variant A327_11K/GpL16-k0 (antibody, human IgG1, kappa)
heavy 1: not shown
heavy 2: not shown
light: B1 light
notes: as for B1
B19: GpH7-A5/GpH7-B3 variant N325_02A/GpL16-k0 (antibody, human IgG1, kappa)
heavy 1: not shown
heavy 2: not shown
light: B1 light
notes: as for B1
B20: GpH7-A5/GpH7-B3 variant Y296_13S/GpL16-k0 (antibody, human IgG1, kappa)
heavy 1: not shown
heavy 2: not shown
light: B1 light
notes: heterodimerized antibody, mutation in one H chain only; also called He Ab

Each binder was assayed against T3, FcγRIa (human, UniProt P12314 16-292) (assay: SPR (Biacore); He/Con_1a (FcgRIa) divided by He/Con_2b (FcgRIIb)).
T3 construct: extracellular domain; also called FcgRI; FcgRIa
Description: (§1) The heterodimerized antibodies He Abs in which one of the H chains was introduced with an alteration were assayed for their binding activities to each activating FcγR and inhibitory FcγR according to the method described in Example 4. […] The activating FcγRs in FIGS. 26, 27, 28, and 29 are FcγRIa, FcγRIIa (R), FcγRIIa (H), and FcγRIIIa, respectively.
(§2) Analysis of interaction between objective antibody and the FcγR was carried out using Biacore T100 (GE Healthcare). HBS-EP+ (GE Healthcare) was used as the running buffer, and the measurement temperature was set to 25° C. Chips produced by immobilizing the antigen peptide by the amine coupling method to a Series S Sencor Chip CM5 (GE Healthcare), or alternatively, chips produced by allowing preliminarily biotinylated antigen peptides to interact with and immobilize onto a Series S Sensor Chip SA (certified) (GE Healthcare) were used. Antibodies of interest were captured onto an antigen peptide-immobilized chip, and allowed to interact to each FcγR diluted with running buffer. To regenerate and repeatedly use the chip, the antibodies captured on the chip were washed off by reacting 10 mM glycine-HCl, pH 1.5.

T3 sequence (P12314 16-292): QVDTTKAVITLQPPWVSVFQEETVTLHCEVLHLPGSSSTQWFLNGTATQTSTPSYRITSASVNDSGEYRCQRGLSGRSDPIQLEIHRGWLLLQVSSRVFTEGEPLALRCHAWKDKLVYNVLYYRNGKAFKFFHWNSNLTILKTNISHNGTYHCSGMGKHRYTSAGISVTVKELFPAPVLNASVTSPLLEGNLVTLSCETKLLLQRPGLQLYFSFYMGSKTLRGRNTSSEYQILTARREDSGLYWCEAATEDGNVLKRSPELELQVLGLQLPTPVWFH

Ia/IIb He_1a/2b | Binder
2.4 | B1
2.19 | B2
7.81 | B3
1.58 | B4
9.64 | B5
2.28 | B6
1.43 | B7
1.43 | B8
1.56 | B9
1.29 | B10
1.74 | B11
1.52 | B12
1.78 | B13
1.36 | B14
1.56 | B15
3.42 | B16
4.41 | B17
6.87 | B18
1.5 | B19

Each binder was assayed against T1, FcγRIIa R (human FcγRIIa, allotype R, …) (assay: SPR (Biacore), relative binding vs GpH7-A5/GpH7-B3/GpL16-k0).
Description: as §2
The FcγR-binding activity of each antibody was assessed primarily using as an indicator the FcγR-binding activity and dissociation constant for FcγR.

He/Con_2aR | Binder
102 relative, control = 100 | B20

What follows are binders tested against T2, FcγRIIb (assay: SPR (Biacore), relative to GpH7-A5/GpH7-B3/GpL16-k0 = 100).
Description: as §1, §2

He/Con_2b (IIb binding) | Binder
48.4 relative (control = 100) | B1
48.3 relative (control = 100) | B2
10.4 relative (control = 100) | B3
60.8 relative (control = 100) | B4
47.6 relative (control = 100) | B6
69.3 relative (control = 100) | B7
69.1 relative (control = 100) | B8
63.7 relative (control = 100) | B9
79.5 relative (control = 100) | B10
59.5 relative (control = 100) | B11
63.5 relative (control = 100) | B12
54.2 relative (control = 100) | B13
70.1 relative (control = 100) | B14
63.1 relative (control = 100) | B15
26 relative (control = 100) | B16
19.1 relative (control = 100) | B17
12.5 relative (control = 100) | B18
64.4 relative (control = 100) | B19

Each binder was assayed against T3, FcγRIa in the same assay as above.
Description: as §1, §2

He/Con_1a (Ia binding) | Binder
116 relative (control = 100) | B1
106 relative (control = 100) | B2
80.9 relative (control = 100) | B3
96.3 relative (control = 100) | B4
86.7 relative (control = 100) | B5
108 relative (control = 100) | B6
99.3 relative (control = 100) | B7
99.1 relative (control = 100) | B8
99.1 relative (control = 100) | B9
102 relative (control = 100) | B10
103 relative (control = 100) | B11
96.5 relative (control = 100) | B12
96.2 relative (control = 100) | B13
95.1 relative (control = 100) | B14
98.6 relative (control = 100) | B15
88.8 relative (control = 100) | B16
84.2 relative (control = 100) | B17
86.1 relative (control = 100) | B18
96.8 relative (control = 100) | B19
